Assay [1] addresses T1, FcRn of neonatal mouse intestine (mouse) (UniProt Q61559).
T1 sequence (looked up): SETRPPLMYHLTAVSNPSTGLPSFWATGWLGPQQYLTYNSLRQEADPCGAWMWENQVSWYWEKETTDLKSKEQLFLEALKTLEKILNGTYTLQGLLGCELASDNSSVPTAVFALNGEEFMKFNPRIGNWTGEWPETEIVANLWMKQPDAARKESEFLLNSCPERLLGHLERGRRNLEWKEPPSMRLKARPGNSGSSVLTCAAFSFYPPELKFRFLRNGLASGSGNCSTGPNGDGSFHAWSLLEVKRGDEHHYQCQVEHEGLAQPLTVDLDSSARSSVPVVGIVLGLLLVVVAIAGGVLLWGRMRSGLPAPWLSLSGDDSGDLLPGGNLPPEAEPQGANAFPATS
T1 sequence (b2m, looked up): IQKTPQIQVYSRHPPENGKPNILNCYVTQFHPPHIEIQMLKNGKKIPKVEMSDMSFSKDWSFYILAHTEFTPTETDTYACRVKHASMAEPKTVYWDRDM
Put plainly: cell-based or functional assay.

Assay [2] concerns the target recombinant soluble mouse FcRn (mouse) (UniProt Q61559). Put plainly: inhibition of 125I-sFcRn binding to murine IgG1-Sepharose; molar ratio of inhibitor/FcRn given as 1/500.
The target is the same in assay [3]. The assay can be described thus: inhibition of 125I-sFcRn binding to murine IgG1-Sepharose; molar ratio of inhibitor/FcRn given as 1/1000.
The target of assay [4] is Staphylococcal protein A (Staphylococcal) (UniProt P38507). The assay can be described thus: direct binding of 125I-Fc-hinge fragments to SpA-agarose, pH 7.5.
The target in assay [5] is complete murine IgG1 molecule (mouse). The assay can be described thus: 125I-sFcRn on mIgG1-Sepharose, incubation at pH 6.0 (913,948 cpm added).
For assay [6] the target is unchanged. The assay can be described thus: 125I-sFcRn on mIgG1-Sepharose, incubation at pH 6.0 (937,685 cpm added).
The target is the same in assay [7]. The assay can be described thus: 125I-sFcRn on mIgG1-Sepharose, incubation at pH 7.5 (931,302 cpm added).
Assay [8] shares this target. The assay can be described thus: 125I-sFcRn on mIgG1-Sepharose, incubation at pH 7.5 (943,936 cpm added).
The target is the same in assay [9]. Put plainly: 125I-sFcRn on mIgG1-Sepharose, incubation at pH 7.5 (958,958 cpm added).
The target is the same in assay [10]. The assay can be described thus: 125I-sFcRn on mIgG1-Sepharose, incubation at pH 6.0 in presence of 500 ug free mIgG1 (937,985 cpm added).
The target of assay [11] is recombinant soluble mouse FcRn (mouse) (UniProt Q61559). Put plainly: SPR (BIAcore 2000), FcRn coupled to CM5 chip, Fc-hinge 100-300 nM in flow, pH 6.0. (SPR reads the build-up and loss of mass on a sensor chip optically.)

Usually % inhibition stands for the change of the read-out against control, counted positive when it falls. The term Kd denotes the concentration at which binding is half-saturated. By koff is commonly meant the rate constant with which the complex falls apart. One may read the kon as the second-order rate constant of association.

The substance HQ-310 mutant Fc-hinge fragment came in with an Inhibition of transmission (%) of radiolabeled mIgG1 across the intestine of neonatal mice in assay [1] of 8.9%. In addition, the results for the % inhibition in assay [2] and in assay [3] were 1.6% and 6.1%, respectively.

For the substance “I253A mutant Fc-hinge fragment (from UniProt P01868 98-324)”, the % inhibition was 2.3% in assay [2] and 6.5% in [3].

In [1], “Fc-hybrid (heterodimer of WT Fc-hinge and HQ-310/HN-433 mutant)” showed an Inhibition of transmission (%) of radiolabeled mIgG1 across the intestine of neonatal mice of 21.5%.

In the case of H310A and H435A, the SpA binding, % of WT Fc-hinge in assay [4] is 9 to 12 % of WT.

In the case of “recombinant soluble mouse FcRn (from UniProt Q61559 22-290; P01887 21-119) (receptor)”, the bound radioactivity was 271000 cpm in [5]; 228000 cpm in assay [6]; 19600 cpm in assay [7]; 11600 cpm in assay [8]; 12300 cpm in assay [9]; 70700 cpm in assay [10]. Further, the bound radioactivity after pH 7.5 wash in [5] stood at 42600 cpm; in assay [6], 42700 cpm; in assay [7], 16800 cpm; in assay [8], 10300 cpm; in assay [9] it was 9470 cpm; in assay [10], 26500 cpm.

On to “HQ-310/HN-433 mutant Fc-hinge fragment (from UniProt P01868 98-324)”, for which the % inhibition in assay [2] turned out to be 0.2%; in [3] it was 4%.

For the substance “wild type (WT) Fc-hinge fragment derived from murine IgG1 (from UniProt P01868 98-324)”, in assay [11], the Kd is 7.44 nM, the koff is 0.00461 s⁻¹ and the kon was 620000 M⁻¹ s⁻¹. Also, the % inhibition in assay [2] came to 18.4%. For the same substance, the % inhibition in assay [3] was 34.1%.

In turn, “bovine serum albumin (from UniProt P02769 25-607)” displayed an Inhibition of transmission (%) of radiolabeled mIgG1 across the intestine of neonatal mice in [1] of 8.9%.

Turning to HN-433 mutant Fc-hinge fragment, in assay [1], the Inhibition of transmission (%) of radiolabeled mIgG1 across the intestine of neonatal mice amounted to 44.4%.

Regarding “Fc fragment of murine IgG1 produced by papain digestion (from UniProt P01868 98-324)”, in [1], the Inhibition of transmission (%) of radiolabeled mIgG1 across the intestine of neonatal mice was 62.5%.

Source of the values: patent publication US20020098193A1.
